Test results reported in paper PMC10810272.

How the values were obtained:
[1] = target: Candidatus Methanomethylophilus alvus pyrrolysyl-tRNA synthetase (MaPylRS) (Candidatus Methanomethylophilus alvus) (UniProt M9SC49); assay: AUC; sedimentation velocity, 20°C, 30 000 rpm; 50 mM MES pH 5.2, 500 mM NaCl, 10 mM MgCl2; multiple concentrations (0.3, 0.6 and 1.2 mg/ml)
[2] = target: Candidatus Methanomethylophilus alvus pyrrolysyl-tRNA synthetase (MaPylRS) (Candidatus Methanomethylophilus alvus) (UniProt M9SC49); assay: dynamic light scattering; Nano-S Zetasizer, five measurements; sample at 16 μM (0.5 mg/ml); dimer assigned from HullRad predictions on the crystal structure

“Candidatus Methanomethylophilus alvus pyrrolysyl-tRNA synthetase (MaPylRS) (from UniProt M9SC49 1-275) (enzyme)” showed a stoichiometry N [1] of 2 and a stoichiometry N [2] of 2.
